Test [1] deals with PML-RAR (UniProt P29590). In words: cell-based or functional assay.
Test [2] deals with nuclear corepressor (NCoR) (UniProt O75376). The experiment in a line: cell-based or functional assay.
nuclear corepressor (NCoR), sequence (O75376 whole entry): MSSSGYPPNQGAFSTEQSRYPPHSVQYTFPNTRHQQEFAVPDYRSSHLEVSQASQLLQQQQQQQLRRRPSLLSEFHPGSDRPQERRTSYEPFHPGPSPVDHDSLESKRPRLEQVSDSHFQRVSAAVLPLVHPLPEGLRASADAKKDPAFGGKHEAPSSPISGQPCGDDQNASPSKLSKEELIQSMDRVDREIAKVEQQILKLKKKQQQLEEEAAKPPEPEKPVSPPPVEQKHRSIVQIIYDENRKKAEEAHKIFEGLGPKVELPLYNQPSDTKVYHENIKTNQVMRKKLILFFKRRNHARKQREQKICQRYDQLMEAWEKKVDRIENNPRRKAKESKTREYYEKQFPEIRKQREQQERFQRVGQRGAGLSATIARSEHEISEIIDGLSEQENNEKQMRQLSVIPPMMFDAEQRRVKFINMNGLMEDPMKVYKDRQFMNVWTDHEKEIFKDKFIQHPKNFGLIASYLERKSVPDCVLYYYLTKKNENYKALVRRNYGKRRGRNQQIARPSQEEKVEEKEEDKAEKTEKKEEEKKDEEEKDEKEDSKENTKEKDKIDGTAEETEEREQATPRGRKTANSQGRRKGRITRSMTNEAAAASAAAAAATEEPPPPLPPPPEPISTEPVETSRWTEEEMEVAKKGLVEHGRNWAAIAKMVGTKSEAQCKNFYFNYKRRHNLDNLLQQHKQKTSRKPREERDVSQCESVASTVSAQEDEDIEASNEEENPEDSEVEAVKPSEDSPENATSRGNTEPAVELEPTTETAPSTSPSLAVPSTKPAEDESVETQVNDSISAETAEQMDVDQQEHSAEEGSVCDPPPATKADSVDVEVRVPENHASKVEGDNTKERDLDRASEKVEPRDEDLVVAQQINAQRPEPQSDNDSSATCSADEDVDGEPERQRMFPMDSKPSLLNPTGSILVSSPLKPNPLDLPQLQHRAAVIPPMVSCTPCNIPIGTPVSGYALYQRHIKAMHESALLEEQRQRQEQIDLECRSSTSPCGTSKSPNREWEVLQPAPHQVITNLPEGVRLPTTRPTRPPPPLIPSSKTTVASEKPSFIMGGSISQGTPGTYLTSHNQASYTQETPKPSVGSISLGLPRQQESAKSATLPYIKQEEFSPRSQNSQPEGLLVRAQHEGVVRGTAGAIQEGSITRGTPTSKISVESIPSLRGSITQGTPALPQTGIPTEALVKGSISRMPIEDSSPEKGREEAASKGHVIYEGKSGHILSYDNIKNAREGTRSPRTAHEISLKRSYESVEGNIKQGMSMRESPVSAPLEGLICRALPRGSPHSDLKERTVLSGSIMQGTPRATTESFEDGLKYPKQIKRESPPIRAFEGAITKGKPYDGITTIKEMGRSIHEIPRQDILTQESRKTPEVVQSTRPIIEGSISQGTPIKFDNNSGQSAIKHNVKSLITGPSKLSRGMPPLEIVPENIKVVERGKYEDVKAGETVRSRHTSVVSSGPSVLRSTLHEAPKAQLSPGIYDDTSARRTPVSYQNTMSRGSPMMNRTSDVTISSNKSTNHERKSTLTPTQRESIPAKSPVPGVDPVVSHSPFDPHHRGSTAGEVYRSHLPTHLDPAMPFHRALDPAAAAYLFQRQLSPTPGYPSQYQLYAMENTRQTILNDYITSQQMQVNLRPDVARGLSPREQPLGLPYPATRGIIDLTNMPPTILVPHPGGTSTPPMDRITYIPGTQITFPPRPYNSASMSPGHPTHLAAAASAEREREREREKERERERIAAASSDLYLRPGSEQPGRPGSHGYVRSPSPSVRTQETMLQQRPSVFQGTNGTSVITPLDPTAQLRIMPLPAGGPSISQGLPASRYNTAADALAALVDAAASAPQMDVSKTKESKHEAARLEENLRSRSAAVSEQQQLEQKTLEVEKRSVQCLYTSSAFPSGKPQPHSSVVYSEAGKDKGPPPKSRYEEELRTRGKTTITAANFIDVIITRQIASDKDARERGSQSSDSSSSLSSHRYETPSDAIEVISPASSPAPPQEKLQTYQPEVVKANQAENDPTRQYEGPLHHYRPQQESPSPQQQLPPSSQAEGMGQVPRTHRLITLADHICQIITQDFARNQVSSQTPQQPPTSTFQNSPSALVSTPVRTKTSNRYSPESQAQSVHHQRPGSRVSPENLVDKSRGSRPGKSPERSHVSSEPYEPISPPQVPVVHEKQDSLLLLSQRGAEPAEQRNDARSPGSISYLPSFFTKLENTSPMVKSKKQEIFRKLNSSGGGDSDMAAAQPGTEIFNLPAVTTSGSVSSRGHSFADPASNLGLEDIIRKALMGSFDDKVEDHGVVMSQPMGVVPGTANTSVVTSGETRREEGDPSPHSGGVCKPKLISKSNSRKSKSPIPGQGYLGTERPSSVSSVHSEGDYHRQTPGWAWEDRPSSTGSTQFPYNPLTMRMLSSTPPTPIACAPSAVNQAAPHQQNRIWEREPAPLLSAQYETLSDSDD

PML-RAR (from UniProt P29590 1-552; P10276 61-462), sequence (P29590 other isoform, or with tags, fused parts or gaps limits assumed): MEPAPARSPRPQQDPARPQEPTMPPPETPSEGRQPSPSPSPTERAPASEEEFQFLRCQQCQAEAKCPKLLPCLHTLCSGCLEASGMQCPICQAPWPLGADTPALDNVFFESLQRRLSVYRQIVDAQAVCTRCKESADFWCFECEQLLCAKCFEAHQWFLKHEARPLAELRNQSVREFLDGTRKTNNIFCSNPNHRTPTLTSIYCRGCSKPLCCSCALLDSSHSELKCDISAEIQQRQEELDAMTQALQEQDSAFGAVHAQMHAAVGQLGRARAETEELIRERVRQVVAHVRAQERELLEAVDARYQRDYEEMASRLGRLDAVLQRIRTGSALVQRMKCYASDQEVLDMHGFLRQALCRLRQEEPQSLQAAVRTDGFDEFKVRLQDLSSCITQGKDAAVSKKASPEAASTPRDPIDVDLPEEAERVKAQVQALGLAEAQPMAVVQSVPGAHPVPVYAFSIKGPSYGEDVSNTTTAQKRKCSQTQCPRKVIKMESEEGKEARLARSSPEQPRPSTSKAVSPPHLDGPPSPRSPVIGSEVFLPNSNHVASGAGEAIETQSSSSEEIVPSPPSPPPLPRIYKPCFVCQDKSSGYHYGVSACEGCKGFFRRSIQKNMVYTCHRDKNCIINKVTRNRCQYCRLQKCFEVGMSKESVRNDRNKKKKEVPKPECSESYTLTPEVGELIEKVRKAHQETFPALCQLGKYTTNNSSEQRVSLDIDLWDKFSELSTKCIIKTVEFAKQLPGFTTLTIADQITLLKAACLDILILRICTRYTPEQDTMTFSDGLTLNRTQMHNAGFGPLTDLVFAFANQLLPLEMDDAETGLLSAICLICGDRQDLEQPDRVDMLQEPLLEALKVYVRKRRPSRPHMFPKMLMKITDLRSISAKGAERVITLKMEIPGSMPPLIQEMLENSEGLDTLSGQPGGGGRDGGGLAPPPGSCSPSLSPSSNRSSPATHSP
PML-RAR (UniProt P29590), sequence (P29590 other isoform, or with tags, fused parts or gaps limits assumed): as above

The substance “coiled coil of PML (RBCC) (from UniProt P29590 1-360)” showed a percentage of differentiated, CD14+ U937 cells after vitamin D and TGFβ, PML-RAR induced (% CD14+ cells) in test [1] of 70. The substance “PML-RAR (from UniProt P29590 1-552; P10276 61-462)” displayed a transcriptional repression of GAL4-VP16 activation of the RARE-G5-TATA reporter in HeLa cells, 50 ng expression vector in test [2] of 30 to 40%.
